Test results published in patent publication US20220411517A1 (LEO PHARMA A S, published 2022).

T1: human IL1RAcP domain 1 (AG-12335) (human)
T1 construct: also called domain 1 of human IL-1RAcP
T1 chain: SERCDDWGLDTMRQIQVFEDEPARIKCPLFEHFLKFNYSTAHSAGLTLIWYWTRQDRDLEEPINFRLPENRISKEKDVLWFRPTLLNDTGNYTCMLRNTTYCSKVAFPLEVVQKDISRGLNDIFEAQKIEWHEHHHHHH

T2: human IL1RAcP domain 3 (AG-12127) (human)
T2 construct: also called domain 3 of human IL-1RAcP
T2 chain: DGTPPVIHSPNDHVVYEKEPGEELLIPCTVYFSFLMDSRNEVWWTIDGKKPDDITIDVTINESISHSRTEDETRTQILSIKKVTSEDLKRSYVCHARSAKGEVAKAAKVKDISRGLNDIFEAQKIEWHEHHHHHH


Tests used:
[1] = target: T3, cynomolgus IL-1RAcP on cells (cynomolgus, UniProt A0A2K5X5J5 21-570); experiment: cell-based or functional assay
human IL-1RAcP on cells [2] = target: T4, human IL-1RAcP on cells (human, UniProt Q9NPH3 21-570); experiment: cell-based or functional assay
[3] = target: T5, human IL1RAcP domain 1/2 (AG-12337) (human); experiment: ELISA on directly coated human IL-1RAcP domain 1/2 (AG-12337), IgG1f_AEASS titrated, S/BG
T5 construct: also called domain 1/2 of human IL-1RAcP

[4] = target: T6, cyIL-1RAP(1-367)_F-chLys_Avi (cynomolgus, biotinylated (Avi tag) in SPR; unlabeled in SET); experiment: solution equilibrium titration (SET), ECL read-out, IgG
T6 construct: cynomolgus IL-1RAcP (21-367) is UniProt A0A2K5X5J5; also called cynomolgus IL-1RAcP (AG-12211)
Experimental: (§1) MSD SulfoTAG™ NHS-Ester (Meso Scale Diagnostics) according to the manufacturer's instructions. […] Serial dilutions of unlabeled antigen were prepared, starting with a concentration at least 10 times higher than the expected KD. Wells without antigen were used to determine Bₘₐₓ values;
(§2) wells containing only assay buffer were used to determine background. […] MSD plates were coated with antigen on standard plates (30 μL per well). After washing the plate with PBS with 0.05% Tween 20, the equilibrated samples were transferred to the plates and incubated for 20 min. […] After washing the MSD plate and adding 30 μL/well MSD Read Buffer T with surfactant, electrochemiluminescence signals were detected using a MESO SECTOR S 600 (Meso Scale Diagnostics).
(§3) The data was evaluated with XLfit (IDBS) software applying customized fitting models.

[5] = target: T7, mouse (AG-12212) IL-1RAcP (mouse, UniProt Q61730 21-367, limits assumed); experiment: ELISA, Fc-capture mode of the IgGs (FIG. 1-3)
T7 construct: Recombinant tagged antigen; also called recombinant mouse IL-1RAcP; mouse IL-1RAP
Text: (§4) Bound antibodies were detected using respective alkaline-phosphatase (AP) coupled secondary antibodies in combination with ‘AttoPhos’ fluorescence substrate. Multiple washing steps have been performed in between individual assay steps.

recombinant rat IL-1RAcP = recombinant rat IL-1RAcP (rat, UniProt Q63621 21-367, limits assumed); experiment: ELISA (FIG. 1-3 cited)
[6] = target: T1, human IL1RAcP domain 1 (AG-12335); experiment: ELISA on directly coated human IL-1RAcP domain 1 (AG-12335), IgG titrated, S/BG
Experimental: All were assessed with direct coating of the antigen. […] An anti-His antibody served as positive control.

[7] = target: T2, human IL1RAcP domain 3 (AG-12127); experiment: ELISA on directly coated human IL-1RAcP domain 3 (AG-12127), IgG titrated, S/BG
[8] = target: T3, cynomolgus IL-1RAcP on cells; experiment: cell-based or functional assay; remark: listed apart in the source
human IL-1RAcP on cells [9] = target: T4, human IL-1RAcP on cells; experiment: cell-based or functional assay; remark: listed apart in the source
human IL-1RAcP on cells [10] = target: T4, human IL-1RAcP on cells; experiment: flow cytometry on primary human dermal fibroblasts expressing endogenous IL-1RAcP (FIG. 4-1)
Experimental: Cell suspensions were transferred into microtiter plates and antibody samples were added followed by subsequent incubation of plates at 4° C. for 3 hours. Following incubation, cells were washed several time with FACS buffer.

[11] = target: T8, hIL-1RAP(1-367)_F-chLys_Avi (human, biotinylated (Avi tag) in SPR and ELISA binning; unlabeled in SET); experiment: solution equilibrium titration (SET), ECL read-out, IgG
T8 construct: also called human IL-1RAcP (AG-12210)
Experimental: as §1, §2, §3

[12] = target: T8, hIL-1RAP(1-367)_F-chLys_Avi; experiment: SET, ratio of KD values
[13] = target: T6, cyIL-1RAP(1-367)_F-chLys_Avi; experiment: SET, ratio of KD values
[14] = target: T8, hIL-1RAP(1-367)_F-chLys_Avi; experiment: SPR (Biacore), biotinylated antigen captured, FabCys-AviHis as analyte, 1:1 fit
Experimental: (§5) Approximately 3000 RU capture reagent was bound. This surface was used to load biotinylated antigen to generate a low-density surface for subsequent kinetic characterization (approx. 60-100 RU antigen loaded). […] After injecting the last and highest analyte concentration, a long dissociation phase was recorded. […] A blank injection of assay buffer (HBS-EP+) following the same injection pattern as described above was recorded and subtracted from specific sensorgrams during analysis (double referencing). At the end of each cycle, the sensor was regenerated with one 120 s injection of 6 M guanidine hydrochloride in 250 mM NaOH, which completely removed capture reagent with loaded biotinylated antigen and bound Fab fragments. The obtained sensorgrams were fitted to a monovalent binding model using Biacore Insight Evaluation Software. The obtained values for rate constants kₒₙ and koff were used to calculate KD.

[15] = target: T8, hIL-1RAP(1-367)_F-chLys_Avi; experiment: ELISA binning; competitor: coated CAN04 FabCys-AviHis; 1.5 nM biotinylated human IL-1RAcP (AG-12210) pre-incubated with the titrated Fab; captured IL-1RAcP detected with streptavidin-AP
Experimental: (§6) Epitope binning was performed using an ELISA-based competition assay. The experiments were performed using either IgG1f_AEASS or FabCys-AviHis. Antibodies were diluted to three (3) nM (for IgGs) or to 20 nM (in case of Fabs) in PBS. […] The next day 90 μL/well blocking solution (5% BSA in PBS) was added to the plate followed by an incubation at RT for at least 1 h. During incubation, the competing antibodies, including reference and negative control antibodies, were diluted in assay buffer (1xPBS, 0.5% BSA, 0.02% Tween). […] Following the incubation of the blocking solution, the ELISA plates were washed 3× with PBST. Subsequently, 20 μl/well of the prepared antibody/antigen solution was transferred to the wells and incubated for 30 min with gentle agitation. Subsequently, plates were washed 3× using PBS-T.
(§7) For detection 20 μl of a prepared streptavidin-alkaline phosphatase conjugate solution was added to the wells in order to detect bound biotinylated human IL-1RAcP. Incubation happened for 30 min with gentle agitation. Following the incubation with streptavidin-alkaline phosphatase conjugate, assay plates were washed 5× with PBS-T. Then 20 μl of AttoPhos substrate (diluted 1:5 in H₂O) was added to the wells. Plates were incubated for 10 min at RT and readout happened using a Tecan M1000 Pro Reader.
(§8) Every graph represents an individual first antibody in the FabCys-AviHis format coated on the surface. […] Subsequently, preformed antigen antibody complex was added to the respective wells with the surface coated first antibody. Detection happened via the biotin of IL-1RAcP using a streptavidin-alkaline phosphatase conjugate.

[16] = target: T6, cyIL-1RAP(1-367)_F-chLys_Avi; experiment: SPR (Biacore), biotinylated antigen captured, FabCys-AviHis as analyte, 1:1 fit; comment: Koff approaching assay limit
Experimental: as §5

[17] = target: T8, hIL-1RAP(1-367)_F-chLys_Avi; experiment: ELISA binning; competitor: coated Y024149 FabCys-AviHis (sheet title Y024149_FAB COATED); 1.5 nM biotinylated human IL-1RAcP (AG-12210) pre-incubated with the titrated Fab; captured IL-1RAcP detected with streptavidin-AP
Experimental: as §6, §7, §8

[18] = target: T8, hIL-1RAP(1-367)_F-chLys_Avi; experiment: ELISA binning; competitor: coated Y024148 FabCys-AviHis; 1.5 nM biotinylated human IL-1RAcP (AG-12210) pre-incubated with the titrated Fab; captured IL-1RAcP detected with streptavidin-AP
Experimental: as §6
For detection 20 μl of a prepared streptavidin-alkaline phosphatase conjugate solution was added to the wells in order to detect bound biotinylated human IL-1RAcP. Incubation happened for 30 min with gentle agitation. Following the incubation with streptavidin-alkaline phosphatase conjugate, assay plates were washed 5× with PBS-T. Then 20 μl of AttoPhos substrate (diluted 1:5 in H₂O) was added to the wells. Plates were incubated for 10 min at RT and readout happened using a Tecan M1000 Pro Reader. […]

[19] = target: T8, hIL-1RAP(1-367)_F-chLys_Avi; experiment: ELISA binning; competitor: coated Y024084 FabCys-AviHis (sheet title Y024084_FAB COATED); 1.5 nM biotinylated human IL-1RAcP (AG-12210) pre-incubated with the titrated Fab; captured IL-1RAcP detected with streptavidin-AP
Experimental: as §6, §7, §8

[20] = target: T6, cyIL-1RAP(1-367)_F-chLys_Avi; experiment: SPR (Biacore), biotinylated antigen captured, FabCys-AviHis as analyte, 1:1 fit; comment: Koff at assay limit
Experimental: as §5

[21] = target: T6, cyIL-1RAP(1-367)_F-chLys_Avi; experiment: ELISA on cynomolgus IL-1RAcP (AG-12211), IgG1f_AEASS titrated 0.007-200 nM, AP-coupled secondary antibody with AttoPhos, signal over background (S/BG)
Text: as §4

[22] = target: T8, hIL-1RAP(1-367)_F-chLys_Avi; experiment: ELISA on human IL-1RAcP (AG-12210), IgG1f_AEASS titrated 0.007-200 nM, AP-coupled secondary antibody with AttoPhos, signal over background (S/BG)
Text: as §4

[23] = target: T7, mouse (AG-12212) IL-1RAcP; experiment: ELISA in Fc-capture mode of the IgGs, mouse IL-1RAcP (AG-12212), S/BG
Text: as §4

human IL-1RAcP on cells [24] = target: T4, human IL-1RAcP on cells; experiment: FACS on Flp-In CHO cells over-expressing human IL-1RAcP, IgG1f_AEASS titrated 1e-12 to 2e-7 M, median FL2-H over background

| EC50 (read off the curve) [3] [pM] | Kd [4] [pM] | binding result [6] | binding result [7] | IC50, IL-8 release, CyDFa stimulated with cynomolgus IL-1β [8] [pM] | IC50, IFNγ release, PBMC stimulated with IL-1β (human IL-1RAcP on cells [9]) [pM] | IC50, IFNγ release, PBMC stimulated with IL-33 (human IL-1RAcP on cells [9]) [pM] | IC50, IL-8 release, HDFa stimulated with IL-1α (human IL-1RAcP on cells [9]) [pM] | IC50, IL-8 release, HDFa stimulated with IL-36α (human IL-1RAcP on cells [9]) [pM] | IC50, IL-8 release, HDFa stimulated with IL-36β (human IL-1RAcP on cells [9]) [pM] | IC50, IL-8 release, HDFa stimulated with IL-36γ (human IL-1RAcP on cells [9]) [pM] | IC50, IL-8 release, HEKa stimulated with IL-1β (human IL-1RAcP on cells [9]) [pM] | IC50, IL-8 release, HEKa stimulated with IL-36β (human IL-1RAcP on cells [9]) [pM] | Kd [11] [pM] | Kd [14] [pM] | IC50 (read off the curve) [15] [pM] | Binder | also measured |
| --- | --- | --- | --- | --- | --- | --- | --- | --- | --- | --- | --- | --- | --- | --- | --- | --- | --- |
| ~5000 | 1 | no binding (tested: 2e-7 M) | no binding (tested: 2e-7 M) | 32 | 1700 | 200 | 1100 | 39 | 60 | 26 | 31000 | 94 | 3 |  |  | Y024149_h_IgG1f_AEASS (antibody, V domains shown, Human IgG1f with AEASS effector-silencing residues, kappa light chain) VH: EVQLVESGGGLVQPGGSLRLSCAASGGTFGGSAMHWVRQAPGKGLVWVSRILTYGGIATYAESVKGRFTISRDNAKNTLYLQMNSLRAEDTAVYYCARGSSEYPKFDIWGQGTLVTVSS VL: DIQMTQSPSTLSASVGDRVTITCRASQSISSWLAWYQQKPGKAPKLLIYDASSLESGVPSRFSGSGSGTEFTLTISSLQPEDFATYYCHQLLIYPHTFGQGTKVEIKR | IC50, IFN-γ release, cynomolgus whole blood stimulated with 300 ng/ml rcIL-33 [1]: ~15000 pM; IC50, IL-6 release, cynomolgus whole blood stimulated with 50 ng/ml rcIL-1β [1]: ~50000 pM; IC50, IL-6 release, cynomolgus whole blood stimulated with IL-1β [1]: ~70000 pM; IC50, IL-6 release, human whole blood stimulated with 1 ng/ml rhIL-1β (human IL-1RAcP on cells [2]): ~10000 pM; IC50, IL-6 release, human whole blood stimulated with 5 ng/ml rhIL-1β (human IL-1RAcP on cells [2]): ~8000 pM; IC50, IL-6 release, human whole blood stimulated with 10 ng/ml rhIL-1β (human IL-1RAcP on cells [2]): ~20000 pM; binding result [5]: no binding; binding result (recombinant rat IL-1RAcP): no binding; EC50 (human IL-1RAcP on cells [10]): 1480 pM; fold stronger KD than reference R001031 (CAN04) [12]: ~7 fold; fold stronger KD than reference R001032 (1A05) [12]: ~3.5 fold; fold stronger KD than reference R001031 (CAN04) [13]: ~16 fold; fold stronger KD than reference R001032 (1A05) [13]: ~15 fold |
|  |  |  |  |  |  |  |  |  |  |  |  |  |  | 18 | ~1000 | Y024148_h_FabCys-AviH (Fab, V domains shown, Disulphide-linked Fab with Avi and His tags; also called Y024148 in FabCys-AviHis format) VH: EVQLVESGGGLVQPGGSLRLSCAASGGTIGGSAVHWVRQAPGKGLVWVSRILTYSSTTQYAESVKGRFTISRDNAKNTLYLQMNSLRAEDTAVYYCARGSSEYPKFDIWGQGTLVTVSS VL: DIQMTQSPSTLSASVGDRVTITCRASQSISSWLAWYQQKPGKAPKLLIYDASSLESGVPSRFSGSGSGTEFTLTISSLQPEDFATYYCHQLLIYPHTFGQGTKVEIKR | Kd [16]: 8 pM |
|  |  |  |  |  |  |  |  |  |  |  |  |  |  | 25 | ~1000 | Y024149_h_FabCys-AviH (Fab, V domains shown, Disulphide-linked Fab with Avi and His tags; also called Y024149 in FabCys-AviHis format) VH: EVQLVESGGGLVQPGGSLRLSCAASGGTFGGSAMHWVRQAPGKGLVWVSRILTYGGIATYAESVKGRFTISRDNAKNTLYLQMNSLRAEDTAVYYCARGSSEYPKFDIWGQGTLVTVSS VL: DIQMTQSPSTLSASVGDRVTITCRASQSISSWLAWYQQKPGKAPKLLIYDASSLESGVPSRFSGSGSGTEFTLTISSLQPEDFATYYCHQLLIYPHTFGQGTKVEIKR | IC50 (read off the curve) [17]: ~700 pM; IC50 (read off the curve) [18]: ~700 pM; IC50 (read off the curve) [19]: ~700 pM; Kd [20]: 6 pM |
| ~4000 | 15 | no binding (tested: 2e-7 M) | no binding (tested: 2e-7 M) | 480 | 5000 | 1800 | 24000 | 50 | 150 | 67 | 162000 | 120 | 11 |  |  | R001032 (1A05) (antibody, human IgG1, kappa, V domains shown, Rabbit variable domains of prior art 1A05 on human IgG1 kappa constant regions with AEASS; also called P013.S.01.B.A05) VH: LEQSGGGAEGGLVKPGGSLELCCKASGFSLSTSYWRCWVRQAPGKGLEWIGCIYAGSGDVTYYANWVNGRFTLSRDIDQSTGCLQLNSLTAADTAMYYCASGVGFGYFNLWGQGTLVTVSS VL: ALVMTQTPSPVSAAVGGTVTINCQASEDIYSNLAWFQQKPGQPPKLLIYDASTLASGVPSRFSGSGSGTEFTLTISGLQSDDAATYYCLGVYTHISADNAFGGGTEVVVKR | EC50 (read off the curve) [21]: 100 to 200 pM; EC50 (read off the curve) [22]: 100 to 200 pM; binding result [23]: no binding (tested: 200 nM); EC50 (read off the curve) (human IL-1RAcP on cells [24]): ~2000 pM |
